Results on 1 substance are retold here after patent US20090142273A1, “Activatable cest MRI agent” (CASE WESTERN RESERVE UNIVERSITY, priority 2006, published 2009).

The target in test [1] is T1, caspase-3 (Homo sapiens, UniProt P42574).
T1 sequence (P42574 29-175 limits assumed): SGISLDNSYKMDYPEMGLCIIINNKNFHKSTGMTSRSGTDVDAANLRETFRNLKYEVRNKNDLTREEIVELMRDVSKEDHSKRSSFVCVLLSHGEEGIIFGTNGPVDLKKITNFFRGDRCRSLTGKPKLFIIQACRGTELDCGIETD
T1 sequence (P42574 176-277 limits assumed): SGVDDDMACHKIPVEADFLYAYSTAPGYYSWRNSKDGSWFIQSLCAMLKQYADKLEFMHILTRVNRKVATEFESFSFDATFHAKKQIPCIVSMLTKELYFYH
Nature of the test: MR parametric map of DEVD-(Tm-DOTA) amide before and after reaction with caspase-3. As to conditions: saturation at −51 ppm vs +51 ppm, 9.4 T, 37° C., pH 7.4. The test is classed as biochemical. Here is the method:
FIG. 16 illustrates […] spectra 998 and MR parametric map 999 of DEVD-(Tm-DOTA) amide 155 before and after adding caspase-3. […] spectra were acquired at 37° C. and pH 7.4 with a continuous wave saturation pulse applied at 31 μT for 4 seconds. The deconvoluted […] spectrum of the product after reaction, showing a […] effect at +8 ppm, is also shown. MR images were acquired at 37° C. and pH 7.4 with a Bruker Biopsin 9.4 T MR scanner. A MSME T1 method was used with TR/TE=1623/10.9 ms and a train of Gaussian-shaped saturation pulses applied at 25 μT for 1.106 s, and with saturation offsets at −51 ppm and +51 ppm. The parametric map was obtained by subtracting the MR image with a saturation offset at −51 ppm from the MR image with saturation offset at +51 ppm. The magnitude of the scale of the original MR images was used as the scale for this parametric map, to properly represent the difference in MRI contrast obtained with different saturation offsets. The […] spectrum of 155 (25 mM, pH 7.4) was recorded by applying selective saturation in 1 ppm increments from +100 ppm to −100 ppm. A […] effect was detected at −51 ppm, which was assigned to the amide most proximal to the lanthanide ion in 155, based on identical results obtained from a similar compound, Tm3^+-DOTAMGly. […] This asymmetry was analyzed by deconvolution to show a […] effect at +8 ppm. […]

Test [2] concerns the target T1, caspase-3. Nature of the test: […] spectra of DEVD-(Tm-DOTA) amide before and after adding caspase-3. In kind it is biochemical. The source says: In one embodiment, the caspase-3 substrate DEVD (Asp-Glu-Val-Asp) was elongated using the amino group on one side arm of lanthanide ligand anchored on the polymer support. FIG. 9 illustrates the conversion of the DEVD-(Ln-DOTA) 90 to amino-(Ln-DOTA) 92 through cleavage by caspase-3. […] Accordingly, the enzymatic activity of caspase-3 can be detected by the change in […] effect caused by this biotransformation.
FIG. 16 illustrates […] spectra 998 and MR parametric map 999 of DEVD-(Tm-DOTA) amide 155 before and after adding caspase-3. […] spectra were acquired at 37° C. and pH 7.4 with a continuous wave saturation pulse applied at 31 μT for 4 seconds. The deconvoluted […] spectrum of the product after reaction, showing a […] effect at +8 ppm, is also shown. MR images were acquired at 37° C. and pH 7.4 with a Bruker Biopsin 9.4 T MR scanner. A MSME T1 method was used with TR/TE=1623/10.9 ms and a train of Gaussian-shaped saturation pulses applied at 25 μT for 1.106 s, and with saturation offsets at −51 ppm and +51 ppm. The parametric map was obtained by subtracting the MR image with a saturation offset at −51 ppm from the MR image with saturation offset at +51 ppm. The magnitude of the scale of the original MR images was used as the scale for this parametric map, to properly represent the difference in MRI contrast obtained with different saturation offsets. The […] spectrum of 155 (25 mM, pH 7.4) was recorded by applying selective saturation in 1 ppm increments from +100 ppm to −100 ppm. A […] effect was detected at −51 ppm, which was assigned to the amide most proximal to the lanthanide ion in 155, based on identical results obtained from a similar compound, Tm3^+-DOTAMGly. After 48 nM of caspase-3 was added and the mixture was incubated at 37° C. and pH 7.4 for 1 hour, the […] effect at −51 ppm was decreased and an asymmetrical shape in the […] spectrum was observed near water. This asymmetry was analyzed by deconvolution to show a […] effect at +8 ppm.

DEVD-(Tm-DOTA) amide [compound 155]: in the test with caspase-3 [1], the “change in water MR signal after reaction with caspase-3” value is “no significant change” and the “decrease in water MR signal due to the PARACEST effect before the enzymatic reaction” value is around 14.5%. The “change of PARACEST effect at −51 ppm after caspase-3” value in the test with caspase-3 [2] (48 nM caspase-3, 37° C., pH 7.4, 1 hour) is on record as “decreased”. Further, the “PARACEST effect after cleavage by caspase-3 (free amine)” value in the test with caspase-3 [2] (48 nM caspase-3, 37° C., pH 7.4, 1 hour, by deconvolution) is “+8 ppm”. For the same substance, in the test with caspase-3 [2] (before caspase-3, 25 mM, pH 7.4, 37° C., 31 μT for 4 seconds), the “PARACEST effect, MR saturation frequency of amide” value is −51 ppm.
